From patent US20200207857A1

target: Recombinant protein Claudin 18.2; experiment: ELISA on plate-coated recombinant Claudin 18.2, OD370; Kd table under the graph, no unit in the table, unit from the x axis log[antibody] nM
Sequence (chain, as listed by the source limits assumed, form in doubt): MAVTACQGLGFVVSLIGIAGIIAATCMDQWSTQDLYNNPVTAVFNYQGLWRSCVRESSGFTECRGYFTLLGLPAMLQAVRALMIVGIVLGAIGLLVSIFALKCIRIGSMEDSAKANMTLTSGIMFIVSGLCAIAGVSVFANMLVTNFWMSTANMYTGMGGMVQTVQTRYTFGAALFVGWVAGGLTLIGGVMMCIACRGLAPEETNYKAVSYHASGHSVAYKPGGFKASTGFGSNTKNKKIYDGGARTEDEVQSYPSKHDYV

Row | Kd [pM] | Binder
1 | 100 | 14D7 (antibody, V domains shown) VH: VQLQQSGGGLVQPGGSRKLSCAASGFTFSSFGMHWVRQAPEKGLEWVGYINSGSSTIYYADTVKGRFTISRDNPRNTLFLQMTSLRSEDTAMYYCASGAYYGNAMDYWGQGTSVTVSS VL: MTQDELSLTVTAGEKVTMSCKSSQSLLNSGNQRNYLTWYQQKPGQPPKLLIYWASTRESGVPNRFTGSGSGTDFTLTISSVQAVDLAVYYCQNNYFYPLTFGSGTKLELK
2 | 293 | 5G7 (antibody, V domains shown) VH: KVQLQESGPELVRPGTSVKVSCKASKYAFTNYLIEWIKQRPGQGLEWIGMINPGSDGSHYNEKFKGKATLTADKSSSTAYMQLSSLTSDDSAVYFCARVGYGNSFAYWGQGTLVTVSA VL: MTQDELSLTVTAGEKVTLSCKSSQSLLNSGNQRNYLTWYQQKKGQPPKLLIYWASTRESGVPDRLTGSGSGTDFTLTISGVQAEDLAVYYCQNAYYYPFTFGSGTKLEIK
3 | 78.2 | 8C12 (antibody, V domains shown) VH: EVQLQQSGGGLVQPGGSRKLSCAASGFTFSDYGMAWVRQAPGKGPEWVAFISNLAYSIYSTDTVTGRFTISRENAKNTLYLEMSSLRSDDTAMYYCARGSYYGNSFDYWGQGTTLTVSS VL: DIVLTQSPAIMSASPGEKVTMTCSASSSVSYMYWYQQKPGSSPKPWIYDTSNLASGFPARFSGSGSGTSYSLIISNMEAEDAATYYCHQRSSYPTFGTGTKLELK
4 | 136 | 5H7 (antibody, V domains shown) VH: EVKLQESGPSLVKPFQSLSLTCTVTDYSITRGYNWHWIRQFPGNKLEWMGYIHYSGSTNYNPSLKSRISITRDTSKNQFFLQLNSVTTEDTATYYCARDYYGNSFAYWGQGTLVTVFC VL: DIVMTQDELSLTVTAREKVTMSCKSSQTLFNSGNQKNYLTWYQQKPGQPPKLLIYWASTRESGVPDRFTGSGSGTDFTLTISSVQAEDLAVYYCQNDYIFPYTFGGGTKLEIK
5 | 343 | 4G3 (antibody, V domains shown) VH: KVQLQQSGGGLVQPGGSRKLSCAASGFTFSSFGMHWVRQAPEKGLEWVGYINSGSSTIYYADTVKGRFTISRDNPRNTLFLQMTSLRSEDTAMYYCASGAYYGNAMDYWGQGTSVTVSS VL: DIVMTQDELSLTVTVGDKVTMNCRSSQSLLNSGNQRNYLTWYQQKPGQPPKLLIYWASTRESGVPDRFTGSGSGTDFTLTISSVQAEDLAVYYCQNVYFYPLTFGTGTKLELK
6 | 200 | 14B7 (antibody, V domains shown) VH: KVKLQESGPELVKPGASVKIPCKASGYTFTDYKMDWVKQSHGKSLEWIGDINPNNGGTIYNQKFKGKATLTVDRSSSTAYMELRSLTSEDTAVYYCARSYYGNSLAYWGQGTLVTVSA VL: DIVMTQDELSLTVTAGEKVTMSCKSSQSLLNSGNQKNYLTWYQQKPGLPPKLLIYWASTRESGVPDRFTGSGSGTDFTLTISSVQAEDLAVYYCQNNYIYPLTFGAGTKLELK
7 | 55 | 1D5 (antibody, V domains shown) VH: VQLQESGAELVRPGTSVKVSCKASRYAFTNYLIEWVKQRPGQGLEWIGMINPGSGGTHYNEKFKVKATLTADKSSSTAYMQLNSLTSDDSAVYFCARGGFGNSFAYWGQGTLVTVSA VL: DIMMTQTPLSLTVTAGEKVTMSCKSSQSLLNGGNLKNYLTWYQQKPGQPPKLLTYWASTRESGVPARFTGSGSGTDFTLTISSVQAEDLAVYYCQNGYFYPYTFGGGTKLEIK
8 | 104 | 7A10 (antibody, V domains shown) VH: VQLQESGAELVRPGTSVKVSCKASGYAFTNYLIEWVKQRPGQGLEWIGMINPGSGGTNYNEKFKGKATLTADKSSSTAYMQLSSLTSDDSAVYFCARGGFGNSFAYWGQGTLVTVSA VL: DIMMTQSPLSLTVTAGEKVTMSCKSSQSLLNSGNLKNYLTWYQQKPGQPPKLLTYWASTRDSGVPARFTGSGSGTDFTLTISSVQAEDLAVYYCQNDYFYPYTFGGGTKLEIK

target: Recombinant protein Claudin 18.2; experiment: ELISA on plate-coated recombinant Claudin 18.2, OD450; Kd table under the graph, no unit in the table, unit from the x axis log[antibody] nM

Row | Kd [pM] | Binder
9 | 89.4 | h5C9oa (antibody, V domains shown) VH: EVQLVESGGGLVQPGGSLRLSCAVSGYTFSMNWVRQAPGKGLEWVAWINMYTGEPTYADDFKGRFTISRDDSKNTLYLQMNSLRAEDTAVYYCARLYNGNSLDYWGQGTLVTVSS VL: DIQMTQSPSSLSASVGDRVTITCKSSQSLLNSGNQKSYLTWYQQKPGKAPKLLIYWASTLESGVPSRFSGSGSGTDYTLTISSLQPEDFATYYCQNAYAFPFTFGQGTKVEIK
10 | 87.8 | h5C9oe (antibody, V domains shown) VH: EVQLVESGGGLVQPGGSLRLSCAVSGYTFSMNWVRQAPGKGLEWVAWINMYTGEPTYADDFKGRFTISRDDSKNTLYLQMNSLRAEDTAVYYCARLYNGNSLDYWGQGTLVTVSS VL: DIQMTQSPSSLSASVGDRVTITCKSSQSLLNSGNQKSYLTWYQQKPGKAPKLLIYWASTLESGVPSRFSGSGSGTDYTLTISSLQPEDFATYYCQNAYRFPFTFGQGTKVEIK
11 | 88.4 | h5C9og (antibody, V domains shown) VH: EVQLVESGGGLVQPGGSLRLSCAVSGYTFSMNWVRQAPGKGLEWVAWINMYTGEPTYADDFKGRFTISRDDSKNTLYLQMNSLRAEDTAVYYCARLYRGNSLDYWGQGTLVTVSS VL: DIQMTQSPSSLSASVGDRVTITCKSSQSLLNSGNQKSYLTWYQQKPGKAPKLLIYWASTLESGVPSRFSGSGSGTDYTLTISSLQPEDFATYYCQNSYSFPFTFGQGTKVEIK
12 | 84.8 | h5C9oc (antibody, V domains shown) VH: EVQLVESGGGLVQPGGSLRLSCAVSGYTFSMNWVRQAPGKGLEWVAWINMYTGEPTYADDFKGRFTISRDDSKNTLYLQMNSLRAEDTAVYYCARLYNGNSLDYWGQGTLVTVSS VL: DIQMTQSPSSLSASVGDRVTITCKSSQSLLNSGNQKSYLTWYQQKPGKAPKLLIYWASTLESGVPSRFSGSGSGTDYTLTISSLQPEDFATYYCQNGYSFPFTFGQGTKVEIK
13 | 103 | h5C9of (antibody, V domains shown) VH: EVQLVESGGGLVQPGGSLRLSCAVSGYTFSMNWVRQAPGKGLEWVAWINMYTGEPTYADDFKGRFTISRDDSKNTLYLQMNSLRAEDTAVYYCARLYNGNSLDYWGQGTLVTVSS VL: DIQMTQSPSSLSASVGDRVTITCKSSQSLLNSGNQKSYLTWYQQKPGKAPKLLIYWASTLESGVPSRFSGSGSGTDYTLTISSLQPEDFATYYCQNSYSFPFTFGQGTKVEIK
14 | 87.6 | h5C9od (antibody, V domains shown) VH: EVQLVESGGGLVQPGGSLRLSCAVSGYTFSMNWVRQAPGKGLEWVAWINMYTGEPTYADDFKGRFTISRDDSKNTLYLQMNSLRAEDTAVYYCARLYNGNSLDYWGQGTLVTVSS VL: DIQMTQSPSSLSASVGDRVTITCKSSQSLLNSGNQKSYLTWYQQKPGKAPKLLIYWASTLESGVPSRFSGSGSGTDYTLTISSLQPEDFATYYCQNAYWFPFTFGQGTKVEIK

target: Recombinant protein Claudin 18.2; experiment: ELISA-based assay on Claudin 18.2, y axis RLU; Kd table under the graph, no unit in the table, unit from the x axis log[antibody] nM

Row | Kd [pM] | Binder
15 | 164 | h5C9oab (antibody, V domains shown) VH: EVQLVESGGGLVQPGGSLRLSCAVSGYTFSMNWVRQAPGKGLEWVAWINMYTGEPTYADDFKGRFTISRDDSKNTLYLQMNSLRAEDTAVYYCARLYNGNSLDYWGQGTLVTVSS VL: DIQMTQSPSSLSASVGDRVTITCKSSQSLLNSGNQKSYLTWYQQKPGKAPKLLIYWASTLESGVPSRFSGSGSGTDYTLTISSLQPEDFATYYCQNAYYFPFTFGQGTKVEIK
16 | 172 | h5C9oam (antibody, human IgG1, kappa, V domains shown) VH: EVQLVESGGGLVQPGGSLRLSCAVSGYTFSMNWVRQAPGKGLEWVAWINMYTGEPTYADDFKGRFTISRDDSKNTLYLQMNSLRAEDTAVYYCARLARGNSIDYWGQGTLVTVSS VL: DIQMTQSPSSLSASVGDRVTITCKSSQSLLNSGNQKSYLTWYQQKPGKAPKLLIYWASTLESGVPSRFSGSGSGTDYTLTISSLQPEDFATYYCQNAYFFPFTFGQGTKVEIKR
17 | 175 | h5C9oad (antibody, V domains shown) VH: EVQLVESGGGLVQPGGSLRLSCAVSGYTFSMNWVRQAPGKGLEWVAWINMYTGEPTYADDFKGRFTISRDDSKNTLYLQMNSLRAEDTAVYYCARLYRGNSLDYWGQGTLVTVSS VL: DIQMTQSPSSLSASVGDRVTITCKSSQSLLNSGNQKSYLTWYQQKPGKAPKLLIYWASTLESGVPSRFSGSGSGTDYTLTISSLQPEDFATYYCQNAYYFPFTFGQGTKVEIK
18 | 162 | h5C9oaf (antibody, V domains shown) VH: EVQLVESGGGLVQPGGSLRLSCAVSGYTFSMNWVRQAPGKGLEWVAWINMYTGEPTYADDFKGRFTISRDDSKNTLYLQMNSLRAEDTAVYYCARLFNGNSLDYWGQGTLVTVSS VL: DIQMTQSPSSLSASVGDRVTITCKSSQSLLNSGNQKSYLTWYQQKPGKAPKLLIYWASTLESGVPSRFSGSGSGTDYTLTISSLQPEDFATYYCQNAYYFPFTFGQGTKVEIKR
19 | 173 | h5C9oaj (antibody, human IgG1, kappa, V domains shown) VH: EVQLVESGGGLVQPGGSLRLSCAVSGYTFSMNWVRQAPGKGLEWVAWINMYTGEPTYADDFKGRFTISRDDSKNTLYLQMNSLRAEDTAVYYCARLARGNSIDYWGQGTLVTVSS VL: DIQMTQSPSSLSASVGDRVTITCKSSQSLLNSGNQKSYLTWYQQKPGKAPKLLIYWASTLESGVPSRFSGSGSGTDYTLTISSLQPEDFATYYCQNAYYFPFTFGQGTKVEIKR
20 | 161 | h5C9oak (antibody, human IgG1, kappa, V domains shown) VH: EVQLVESGGGLVQPGGSLRLSCAVSGYTFSMNWVRQAPGKGLEWVAWINMYTGEPTYADDFKGRFTISRDDSKNTLYLQMNSLRAEDTAVYYCARSSRGNGFDYWGQGTLVTVSS VL: DIQMTQSPSSLSASVGDRVTITCKSSQSLLNSGNQKSYLTWYQQKPGKAPKLLIYWASTLESGVPSRFSGSGSGTDYTLTISSLQPEDFATYYCQNAYYFPFTFGQGTKVEIKR
21 | 198 | h5C9oal (antibody, human IgG1, kappa, V domains shown) VH: EVQLVESGGGLVQPGGSLRLSCAVSGYTFSMNWVRQAPGKGLEWVAWINMYTGEPTYADDFKGRFTISRDDSKNTLYLQMNSLRAEDTAVYYCARLARGNSMDYWGQGTLVTVSS VL: DIQMTQSPSSLSASVGDRVTITCKSSQSLLNSGNQKSYLTWYQQKPGKAPKLLIYWASTLESGVPSRFSGSGSGTDYTLTISSLQPEDFATYYCQNAYYFPFTFGQGTKVEIKR
